In PMC3043148 (Biochemistry, 2011):
Residue numbers refer to the chain shown, from its start. In names and notes the source's numbering stands. Values belong to the binder of their own block, whether it stands above or below them.

How the values were obtained:
[1] = target: T1, human adenylosuccinate lyase (ASL), wild type, His-tag (human, UniProt P30566 1-481); test: AUC
T1 sequence: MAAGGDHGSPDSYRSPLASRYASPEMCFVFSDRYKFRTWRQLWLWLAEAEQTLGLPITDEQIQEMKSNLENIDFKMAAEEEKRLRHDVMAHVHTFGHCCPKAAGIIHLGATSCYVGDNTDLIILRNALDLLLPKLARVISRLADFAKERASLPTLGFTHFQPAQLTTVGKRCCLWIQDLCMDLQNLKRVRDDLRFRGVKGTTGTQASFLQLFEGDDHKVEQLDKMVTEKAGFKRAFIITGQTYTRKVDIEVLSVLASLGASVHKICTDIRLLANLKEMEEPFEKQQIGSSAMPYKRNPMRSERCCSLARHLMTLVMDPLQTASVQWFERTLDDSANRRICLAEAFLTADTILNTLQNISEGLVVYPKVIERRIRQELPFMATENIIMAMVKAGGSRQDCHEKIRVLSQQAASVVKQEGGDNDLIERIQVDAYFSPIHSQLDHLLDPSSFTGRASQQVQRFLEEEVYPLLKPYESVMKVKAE

[2] = target: T2, human adenylosuccinate lyase (ASL) L311V, His-tag (human, UniProt P30566 1-481, L311V); test: AUC
T2 sequence: T1 sequence with L311V

AUC [3] = target: the molecule itself; test: AUC
[4] = target: T1, human adenylosuccinate lyase (ASL), …; test: AUC; remark: listed apart in the source
[5] = target: T2, human adenylosuccinate lyase (ASL) …; test: AUC; remark: listed apart in the source
[6] = target: T1, human adenylosuccinate lyase (ASL), …; test: in vitro subunit hybridisation with separation on Ni-NTA
[7] = target: T2, human adenylosuccinate lyase (ASL) …; test: as above
AUC [8] = target: the molecule itself; test: AUC; remark: listed apart in the source

- stoichiometry N [1]: 4
- stoichiometry N [2]: 4
- percent tetramer (M-Tet model), pool 2 [4]: 73%
- percent tetramer (M-Tet model), pool 3 [4]: 72%
- percent tetramer (M-Tet model), pool 2 [5]: 74%
- percent tetramer (M-Tet model), pool 3 [5]: 74%
- subunit ratio (Non-His-tag: His-tag) by SDS-PAGE, pool 2 [6]: 1.1 non-His-tag per His-tag subunit
- subunit ratio (Non-His-tag: His-tag) by SDS-PAGE, pool 3 [6]: 1.6 His-tag per non-His-tag subunit
- subunit ratio (Non-His-tag: His-tag) by SDS-PAGE, pool 2 [7]: 1.8 non-His-tag per His-tag subunit
- subunit ratio (Non-His-tag: His-tag) by SDS-PAGE, pool 3 [7]: 1 non-His-tag per His-tag subunit
B1: human adenylosuccinate lyase (ASL) R396H, non-His-tag (enzyme)
chain: T1 sequence with R396H
- stoichiometry N (AUC [3]): 4

- percent tetramer (M-Tet model), pool 2 [4]: 73%
- percent tetramer (M-Tet model), pool 3 [4]: 75%
- subunit ratio (Non-His-tag: His-tag) by SDS-PAGE, pool 2 [6]: 1.3 non-His-tag per His-tag subunit
- subunit ratio (Non-His-tag: His-tag) by SDS-PAGE, pool 3 [6]: 3.7 His-tag per non-His-tag subunit
B2: human adenylosuccinate lyase (ASL), wild type, non-His-tag (enzyme)
chain: T1 sequence
- percent tetramer (M-Tet model), pool 1 (AUC [8]): 68%
